From patent US7888090B2, “Mutants of O6-alkylguanine-DNA alkyltransferase” (Ecole Polytechnique Federale de Lausanne, priority 2004, dated 2011)

Key:
[1] = Activity assay with biotinylated O^6-benzylguanine (BG-Bt), Western blotting; assay type: biochemical; details: statement in words
Summary of the method: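 Purified mutant GST-AGT (0.2 μM) reacted with 1 μM biotinylated O^6-benzylguanine in 50 mM HEPES pH 7.2, 1 mM DTT at room temperature. Time-point aliquots quenched with O^6-benzylguanine in SDS buffer. Biotinylated protein detected by Western blot with neutravidin-peroxidase, band intensity quantified.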

[2] = Competition of N^9-substituted and N^9-unsubstituted O^6-benzylguanine substrates; assay type: biochemical
Method: Such N^9-substituted O^6-alkylguanine substrates are the natural substrates of the wild type AGT. The ability of wild type AGT or mutant AGT to react with N^9-modified O^6-alkylguanine substrates is measured as the rate of its reaction with such substrates, e.g. with the low molecular weight N^9-cyclopentyl-O^6-benzylguanine in presence of biotinylated N^9-unsubstituted O^6-alkylguanine substrates in competition experiments. Subsequently, samples are subjected to Western blotting and detection with streptavidin derivates to obtain kinetic constants for these substrates. Alternatively, the reactivity towards such substrates is measured as the inhibition of the reaction of AGT with BG-Cy3. The reaction of AGT with BG-Cy3 is followed by an increase of Cy3 fluorescence intensity upon binding to AGT, after preincubation or in direct competition with the N^9-modified O^6-alkylguanine substrate.
Selected AGT mutants are subcloned into pGEX2T, expressed, purified and characterized as described in Example 1. Discrimination between N^9 substituted and N^9 unsubstituted O^6-benzylguanine substrates is evaluated by competition experiments for purified mutated GST-AGT in vitro with N^9-substituted and N′-unsubstituted O^6-benzylguanine. Aliquots of 0.2 μM GST-AGT are incubated with varying concentrations of N^9 substituted substrate (0, 0.5, up to 100 µM) and 0.5 µM biotinylated O^6-benzylguanine (BG-Bt, substance 3a of Juillerat et al., Chem Biol 10:313-317, 2003) in 50 mM HEPES pH 7.3 and 1 mM DTT at room temperature. After 45 min reactions are quenched by the addition of SDS-Laemmli buffer and heat denaturation. Samples are subjected to SDS-PAGE and Western blotting analysis (neutravidin-peroxidase conjugate (PIERCE), Renaissance reagent plus (NEN)). The intensity of the corresponding bands is quantified by a Kodak Image Station 440.

[3] = Stability after reaction with BG-FL; assay type: physicochemical
Method: Stability before reaction is determined for the mutant AGT or for a mutant AGT fusion protein by incubating purified samples in buffered aqueous solution for up to two weeks at 4° C. and up to six months at −20° C. At several time points, aliquots are taken and concentration of reactive AGT is estimated as described by Juillerat et al., Chem Biol 10:313-317, 2003. Stability for wild type AGT and the AGT mutant after reaction with a labelled substrate and after subsequent separation from unreacted substrate is determined by quantifying the concentration of the label in the soluble fraction over up to two weeks at 4° C. and up to three months at −20° C.
Stability after reaction: The vector pBAD/H is A (Invitrogen) is modified by cloning synthetic oligonucleotides (SEQ ID NO:29 and SEQ ID NO:30) between the NcoI and HindIII sites to include a 12×His-tag and SbfI and AscI cloning sites. The gene of AGTM is amplified with primers SEQ ID NO:31 and SEQ ID NO:32 and cloned between the SbfI/AscI sites into this vector. Wild type AGT and mutant AGT (Lys125Ala, Ala127Thr, Arg128Ala, Asn157Gly, Ser159Glu) are amplified with primers SEQ ID NO:31 and SEQ ID NO:33 and cloned into this vector. Protein expression is carried out in E. coli strain Top 10. An exponentially growing culture is induced with 0.2% arabinose, and the expression is carried out for 16 hours at 28° C. The cells are lysed by adding buffer to 10 ml/g containing 0.5 M NaCl, 80 mM imidazole, 1% Triton, 250 µM PMSF, 1 mM […]-mercaptoethanol, 5 mg/ml lysozyme, 20 µg/ml DNase and stirring for 45 min. […]
The AGT proteins at 10 µM) are quantitatively reacted with fluorescein-modified O^6-benzyl-guanine (substance 5 of Juillerat et al, Chem Biol 10:313-317, 2003, BG-FL, 20 µM) and purified over a size exclusion column (Econopac 10 DG, Bio-Rad) and incubated for 7 days. […] The fluorescence of the supernatant is measured with a Victor2 fluorescence plate reader (Perkin Elmer, excitation/emission at 485/535 nm).

B1: AGTM: AGT mutant Cys62Ala, Gln115Ser, Gln116His, Lys125Ala, Ala127Thr, Arg128Ala, Gly131Lys, Gly132Thr, Met134Leu, Arg135Ser, Cys150Asn, Ser151Ile, Ser152Asn, Asn157Gly, Ser159Glu, truncated after … (protein, UniProt P16455 1-207, looked up, variant C62A Q115S Q116H K125A A127T R128A G131K G132T M134L R135S C150N S151I S152N N157G S159E del183-207)
Methylated-DNA--protein-cystei …: MDKDCEMKRTTLDSPLGKLELSGCEQGLHEIKLLGKGTSAADAVEVPAPAAVLGGPEPLMQATAWLNAYFHQPEAIEEFPVPALHHPVFQQESFTRQVLWKLLKVVKFGEVISYSHLAALAGNPAATAAVKTALSGNPVPILIPCHRVVNINGAVGGYEGGLAVKEWLLAHEGHRLGKPGLG
modifications: His tag
For B1, the “activity towards O^6-benzylguanine substrates” value [1] was “retains the reactivity”, the “activity towards O^6-benzylguanine substrates” value ([1]; Gln115Ser, Gln116His, Lys125Ala, Ala127Thr, Arg128Ala, Gly131Lys, Gly1) was “increased reactivity” and the “reduced reactivity with N^9-substituted O^6-alkylguanine derivatives (factor)” value [2] was at least 10. For the same molecule, the “reduced reactivity towards O^6-alkyl-N^9-deoxyribosylguanine or N^9-cyclopentyl-O^6-benzylguanine” value ([2]; comparator not stated) was “at least 100 fold” and the “time labeled protein remains stable in solution” value [3] was “over 7 days”.
